Measurements as given in patent US20130129767A1.

Tests used:
[1] = biological target: bovine serum albumin (bovine) (UniProt P02769); experiment: static adhesion assay, IEs on coated BSA
[2] = biological target: decorin: CSPG (Chondroitin Sulfate Proteoglycan, Sigma) (bovine) (UniProt P21793); experiment: static adhesion assay, IEs on coated CSPG
Sequence of UniProt P21793 (P21793 31-360 limits assumed): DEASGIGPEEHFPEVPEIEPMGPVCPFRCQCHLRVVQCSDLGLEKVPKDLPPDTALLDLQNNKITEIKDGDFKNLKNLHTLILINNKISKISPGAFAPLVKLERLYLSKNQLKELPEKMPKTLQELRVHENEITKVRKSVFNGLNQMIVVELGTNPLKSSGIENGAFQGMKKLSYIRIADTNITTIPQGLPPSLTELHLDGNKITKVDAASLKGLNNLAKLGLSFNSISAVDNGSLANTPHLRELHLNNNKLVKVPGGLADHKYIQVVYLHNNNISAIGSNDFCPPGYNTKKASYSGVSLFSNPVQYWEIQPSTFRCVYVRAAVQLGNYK

Sequence of UniProt P02769 (P02769 25-607 limits assumed): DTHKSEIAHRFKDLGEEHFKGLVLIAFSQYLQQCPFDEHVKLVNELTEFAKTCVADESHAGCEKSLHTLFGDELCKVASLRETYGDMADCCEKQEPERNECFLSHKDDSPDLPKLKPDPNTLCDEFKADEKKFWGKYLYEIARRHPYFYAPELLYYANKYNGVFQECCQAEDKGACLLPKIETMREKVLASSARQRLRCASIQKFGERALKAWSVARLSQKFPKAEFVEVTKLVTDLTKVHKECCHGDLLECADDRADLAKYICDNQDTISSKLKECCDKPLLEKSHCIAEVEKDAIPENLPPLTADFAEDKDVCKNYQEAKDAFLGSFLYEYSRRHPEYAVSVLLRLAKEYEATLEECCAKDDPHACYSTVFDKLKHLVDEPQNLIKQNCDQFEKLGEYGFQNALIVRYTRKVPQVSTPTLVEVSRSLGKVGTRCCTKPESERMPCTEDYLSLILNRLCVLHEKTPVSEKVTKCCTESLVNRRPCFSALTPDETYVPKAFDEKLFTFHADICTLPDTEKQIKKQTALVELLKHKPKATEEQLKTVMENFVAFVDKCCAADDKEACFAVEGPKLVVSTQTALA

Substance	Bound IEs/mm^2 on BSA [1]	Bound IEs/mm^2 on CSPG [2]
surface of P. falciparum-infected erythrocytes of isolate 1MMCH (naturally infected pregnant person, Benin)	2.5 IEs/mm^2	394 IEs/mm^2
surface of P. falciparum-infected erythrocytes of isolate CM0437 (naturally infected pregnant person, Benin)	1 IEs/mm^2	736 IEs/mm^2
surface of P. falciparum-infected erythrocytes of isolate CM445 (naturally infected pregnant person, Benin)	1.5 IEs/mm^2	218 IEs/mm^2
surface of P. falciparum-infected erythrocytes of isolate WP203 (naturally infected pregnant person, Benin)	1 IEs/mm^2	161 IEs/mm^2
surface of P. falciparum-infected erythrocytes of isolate WP0182 (naturally infected pregnant person, Benin)	2 IEs/mm^2	339 IEs/mm^2
surface of P. falciparum-infected erythrocytes of isolate AK357 (naturally infected pregnant person, Benin)	2.5 IEs/mm^2	337 IEs/mm^2
surface of P. falciparum-infected erythrocytes of isolate WP0200 (naturally infected pregnant person, Benin)	4.5 IEs/mm^2	185 IEs/mm^2
surface of P. falciparum-infected erythrocytes of isolate CM0425 (naturally infected pregnant person, Benin)	1 IEs/mm^2	1040 IEs/mm^2
surface of P. falciparum-infected erythrocytes of isolate 1MH016 (naturally infected pregnant person, Benin)	2 IEs/mm^2	178 IEs/mm^2
surface of P. falciparum-infected erythrocytes of isolate AK366 (naturally infected pregnant person, Benin)	0.5 IEs/mm^2	357 IEs/mm^2
surface of P. falciparum-infected erythrocytes of isolate WP0168 (naturally infected pregnant person, Benin)	2 IEs/mm^2	473 IEs/mm^2
surface of P. falciparum-infected erythrocytes of isolate WP0140 (naturally infected pregnant person, Benin)	2.5 IEs/mm^2	244 IEs/mm^2
surface of P. falciparum-infected erythrocytes of isolate CM0375 (naturally infected pregnant person, Benin)	5 IEs/mm^2	63 IEs/mm^2
surface of P. falciparum-infected erythrocytes of isolate WP0161 (naturally infected pregnant person, Benin)	1 IEs/mm^2	1300 IEs/mm^2
surface of P. falciparum-infected erythrocytes of isolate CM307 (naturally infected pregnant person, Benin)	1 IEs/mm^2	623 IEs/mm^2
